Consider 2 molecules from paper PMC2602803.

For data set [1], the target named is T1, UHRF1 SRA domain (NP95) (mouse, UniProt Q8VDF2 419-628).
T1 sequence: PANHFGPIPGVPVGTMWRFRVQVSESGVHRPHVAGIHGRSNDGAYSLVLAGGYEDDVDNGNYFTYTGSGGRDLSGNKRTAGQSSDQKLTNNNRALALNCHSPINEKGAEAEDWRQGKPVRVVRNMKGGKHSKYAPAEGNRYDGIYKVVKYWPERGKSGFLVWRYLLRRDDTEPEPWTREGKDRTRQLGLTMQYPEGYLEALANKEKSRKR
The data set is described as follows: X-ray crystallography.

Data set [2] addresses T1, UHRF1 SRA domain (NP95). Nature of the data set: X-ray crystallography. The source holds these as a separate data set.

Read-outs that look alike come from different tables or passages of the source.

B1: unmethylated CpG 12-bp duplex (dsDNA)
DNA 1: AACTGCGCAGTT
DNA 2: AACTGCGCAGTT
For B1, the binding result with UHRF1 SRA domain (NP95) [1] is “binds”.

B2: hemimethylated CpG 12-bp duplex (dsDNA)
DNA 1: TCCATGCGCTGAC
DNA 2: GTCAGCGCATGG
modifications: 5-methylcytosine at position 6 of strand 2 (…); strand 1 unmethylated
As to B2, the binding result with UHRF1 SRA domain (NP95) [2] was “binds”.
